The values that follow come from patent publication US20260217847A1 (NANJING REGENECORE BIOTECH, published 2026).

Changes are numbered by the printed parent chain.

The chains are these.
B1: anti-humanized TfR1 protein single-domain antibody 7G10 (VHH clone, crude extract from pMECS) (VHH, not shown: small tags and cut ends)
VHH: ESGGGLVQAGASLKLSCNGSGRTFISYAMGWFRQAPGKQREFVAAERWSGSGIYYADSLKGRFTISRDNAKNTVYLEMNNLKPEDTAVYYCAAREGGLLHVATSYDYWGQGTQVTVSS
B2: anti-humanized TfR1 protein single-domain antibody 7G5 (VHH clone, crude extract from pMECS) (VHH, not shown: small tags and cut ends)
VHH: ESGGGSVQPGGSLRLSCAVSGSIFSIDTMAWYRQAPGKQRELVAAITKGGSRNYADSVKGRFTISRDNAKNTVYLQMNSLKPEDTAVYYCLADRLFRDRSWGQGTQVTVSS
B3: anti-humanized TfR1 protein single-domain antibody 5D1 (VHH clone, crude extract from pMECS) (VHH, not shown: small tags and cut ends)
VHH: ESGGGLVQPGESLRLSCVASGSIWSIYTMGWYRQAPGKQRDFVASITRDGGRRHAESVKDRFTISRDNAKNTLYLQMNSLKPEDTAVYSCLAITSLGEYWGQGTQVTVSS
B4: anti-humanized TfR1 protein single-domain antibody 4C5 (VHH clone, crude extract from pMECS) (VHH, not shown: small tags and cut ends)
VHH: B3 VHH with V18A, K38L, A44G, T47A, D49E, H54Y, L73M, P82R, S89Y, L91N
B5: anti-humanized TfR1 protein single-domain antibody 7A3 (VHH clone, crude extract from pMECS) (VHH, not shown: small tags and cut ends)
VHH: B3 VHH with G50S, H54Y, M77T, S89Y, L91H
B6: anti-humanized TfR1 protein single-domain antibody 2H7 (VHH clone, crude extract from pMECS) (VHH, not shown: small tags and cut ends)
VHH: ESGGGLVQPGESLRLSCVASGSIWSIYTMGWYRQAPGKQRDFVASITGDSTRTLESVKDRFIISRDNTKNTLYLQMNSLKPEDTAVYYCQAITSLGEYWGQGTQVTVSS
B7: anti-humanized TfR1 protein single-domain antibody 4D11 (VHH clone, crude extract from pMECS) (VHH, not shown: small tags and cut ends)
VHH: B6 VHH with G48R, T68A, Q90H
B8: anti-humanized TfR1 protein single-domain antibody 5D3 (VHH clone, crude extract from pMECS) (VHH, not shown: small tags and cut ends)
VHH: ESGGGLVEPGGSLRLSCAASGNIFSINNMYWHRQAPGKQRELVGGITRGGITNYVDSVKGRFTISRDNAKNTVYLQMNSLKPEDTAVYFCNAHPWRLGIADYWGQGTQVTVSS
B9: anti-humanized TfR1 protein single-domain antibody 8E10 (VHH clone, crude extract from pMECS) (VHH, not shown: small tags and cut ends)
VHH: ESGGGLVQAGGSLRLSCAFSGPPFSTYGMGWFRQAPGKEREFVATISGSGFTTTYADSVKGRFTISRDNAKNTVYLQMNSLKPGDTAVYYCAAGVLDGTNWHEYDYWGQGTQVTVSS
B10: anti-humanized TfR1 protein single-domain antibody 8B8 (VHH clone, crude extract from pMECS) (VHH, not shown: small tags and cut ends)
VHH: B9 VHH with A9P, A18V, F19A, P22R, P23T, Y27S, G48W, G98S, N100S
B11: anti-humanized TfR1 protein single-domain antibody 5A3 (VHH clone, crude extract from pMECS) (VHH, not shown: small tags and cut ends)
VHH: ESGGGLVQAGGSLTLSCAVSRRAFNTKAMGWFRQAPGKEREFVATISWSGFSTNYADSVKGRFTISRDNAKNTVYLQMNSLKPGDTAVYYCAAGVLDGTNWHEYDYWGQGTQVTVSS
B12: anti-humanized TfR1 protein single-domain antibody 7D10 (VHH clone, crude extract from pMECS) (VHH, not shown: small tags and cut ends)
VHH: ESGGGLVQPGGSLRLSCATSGGTFEMYAMAWFRQAPGKDREGVAGFSWRDSSTTYYSDSVKGRFTISRDNAKNTVYLQMNSLKPEDTAVYYCAARPYVSRWSESSGYDYWGQGTQVTVSS

The target of this test is T1, human recombinant TfR1 protein (amino acids 89-760) (human, UniProt P02786 89-760).
T1 construct: range 89-760; Expressed in 293F cells from pcDNA3.4; also called humanized TfR1 protein; humanized recombinant TfR1 protein
T1 sequence (P02786 89-760 limits assumed): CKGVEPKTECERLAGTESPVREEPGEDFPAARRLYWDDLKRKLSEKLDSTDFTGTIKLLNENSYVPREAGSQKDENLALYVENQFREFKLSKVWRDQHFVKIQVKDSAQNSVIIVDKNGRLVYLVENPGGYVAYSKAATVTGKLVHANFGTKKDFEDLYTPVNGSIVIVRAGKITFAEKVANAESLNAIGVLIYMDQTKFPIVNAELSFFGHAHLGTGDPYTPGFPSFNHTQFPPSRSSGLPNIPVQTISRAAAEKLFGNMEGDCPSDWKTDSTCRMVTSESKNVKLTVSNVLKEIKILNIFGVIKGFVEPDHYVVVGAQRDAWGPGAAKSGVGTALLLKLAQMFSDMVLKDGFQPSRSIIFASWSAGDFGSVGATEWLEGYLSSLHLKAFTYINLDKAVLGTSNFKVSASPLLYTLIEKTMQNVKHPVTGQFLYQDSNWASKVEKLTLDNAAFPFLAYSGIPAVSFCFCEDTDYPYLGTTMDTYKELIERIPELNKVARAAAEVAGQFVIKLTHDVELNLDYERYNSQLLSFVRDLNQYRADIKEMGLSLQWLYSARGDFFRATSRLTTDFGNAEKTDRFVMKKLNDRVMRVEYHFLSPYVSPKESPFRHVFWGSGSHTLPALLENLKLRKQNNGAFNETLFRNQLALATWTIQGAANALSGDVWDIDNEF
Briefly: ELISA of crude extracts on coated TfR1, anti-HA HRP; positive clone = OD at least 5-fold over control. How it is done:
Crude antibody extracts were obtained using osmotic lysis. 100 μL of the obtained crude antibody extract was transferred to the TfR1-coated ELISA plate and incubated at room temperature for 1 hour. Unbound antibodies were washed away with PBST buffer with Tween-20 (PBS purchased from Sangon Biotech, Cat. No. B548117-0500; Tween-20 purchased from Beyotime Biotechnology, Cat. No. ST825). 100 μL of 1:2000-diluted mouse anti-HA horseradish peroxidase (HRP)-conjugated antibody (Thermo Fisher) was added and incubated at room temperature for 1 hour. After washing with PBST buffer to remove unbound antibodies, HRP chromogenic solution was added, followed by a 15-minute reaction at 37° C. With the stop solution added, the absorbance was read at 450 nm using a microplate reader (purchased from TECAN).
A general note: ELISA stands for enzyme-linked immunosorbent assay.
For B1, the binding result is given as “binds”. As for B2, the entry is “binds”; as for B3, “binds”. The value for B4 was “binds”; that for B5 was “binds”; that for B6 was “binds”. Turning to B7, the binding result is recorded as “binds”. The value for B8 was “binds”; that for B9 was “binds”. As for B10, the entry is “binds”.

As for B11, the binding result is given as “binds”. B12: the binding result is “binds”.
